Target: T1, Human PCSK9 form a' (human, UniProt Q8NBP7 31-692)
T1 construct: also called PCSK9 a'
Assay: SPR (ProteOn XPR36), antibody captured on anti-human IgG, PCSK9 as analyte, 25 C, 1:1 model

Row | Binder | Kd [pM] | koff [s⁻¹] | kon [M⁻¹ s⁻¹]
1 | Evolocumab (antibody, V domains shown) VH: QVQLVQSGAEVKKPGASVKVSCKASGYTLTSYGISWVRQAPGQGLEWMGWVSFYNGNTNYAQKLQGRGTMTTDPSTSTAYMELRSLRSDDTAVYYCARGYGMDVWGQGTTVTVSS VL: QSALTQPASVSGSPGQSITISCTGTSSDVGGYNSVSWYQQHPGKAPKLMIYEVSNRPSGVSNRFSGSKSGNTASLTISGLQAEDEADYYCNSYTSTSMVFGGGTKLTVL | 185 | 2.29e-05 | 124000
2 | Antibody 316P (antibody, V domains shown) VH: EVQLVESGGGLVQPGGSLRLSCAASGFTFNNYAMNWVRQAPGKGLDWVSTISGSGGTTNYADSVKGRFIISRDSSKHTLYLQMNSLRAEDTAVYYCAKDSNWGNFDLWGRGTLVTVSS VL: not shown | 181 | 0.000272 | 1.5e+06

— patent US20160229907A1 (published 2016)
